Measured values from patent publication US20240218057A1 (ROCKEFELLER UNIVERSITY, published 2024).
Where a chain is given by its changes, count along the chain named.

B1: C062 (antibody, V domains shown)
VH: EVQLVESGGGLVKPGGSLRLTCAASGFTFSTYSMNWVRQAPGKGLEWVSSISSSSSYIYYADSVKGRFTISRDNAKNSLYLQMNSLRAEDTAVYYCARERGYYGGKTPPFLGGQGTLVTVSS
VL: NFMLTQPHSVSESPGKTVTISCTGSSGSIASNYVQWYQQRPGSAPTTVIYEDNQRPSGVPDRFSGSIDSSSNSASLTISGLKTEDEADYYCQSYDSSNYWVFGGGTKLTVL
B2: C050 (antibody, V domains shown)
VH: EVQLVESGGGLFQPGGSLRLSCAASGFSVRNNYVSWVRQAPGKGLEWVSVIYSGGTTYYADSVKGRFTISRDISENTLYLQMNSLRAEDTAVYYCAREGDVEGLHDFWSGYSRDRYYFDYWGQGTLVTVSS
VL: QSALTQPASVSGSPGQSIIISCTGTSGDIGGYNYVSWYQQHPGKAPKLMIYDVSFRPSGVSNRFSGSKSDNTASLTISGLQAEDEADYYCSSFTGNNTRVFGTGTKVTVL
B3: C053 (antibody, V domains shown)
VH: B2 VH with F12I, S28I, R30S, V34M, E46D, I73N, E75K, L104Y, F107S
VL: QSALTQPASVSGSPGQSITISCTGSSSDVGGYNFVSWYQQHPGRAPKLMIYDVSNRPSGVSNRFSGSKSGNTASLTISGLQVEDEADYYCSSYTNNNTRVFGTGTKVTVL
B4: C054 (antibody, V domains shown)
VH: EVQLVESGGGLIQPGGSLRLSCAASGFTVSNNYMSWVRQAPGKGLEWVSVIYSGGSTYDADSVKGRFTISRDNSKNTLYLQMNSLSAEDTAVYYCAREGDVEGYYDFWSGYSRDRYYFDYWGQGTLVTVSS
VL: B3 VL with S25T, F34Y, R44K, V82A, N95S, N96S, N97S, T98A
B5: C052 (antibody, V domains shown)
VH: B4 VH with Q13R, T28S, S56T, D59Y, T68N, L78V, S86R, T125A
VL: B3 VL with S25T, F34Y, R44K, V82A, S91N, N95S
B6: C069 (antibody, V domains shown)
VH: QVQLVQSGAEVKKPGSSVNVSCKASGGTFSTYAIHWVRQAPGQGLEWMGGIIPLFHTANYAQKFQGRVTITADESTSTAYMELSSLRSEDTAMYYCAINTQWDLVPRWGRGTLVTVSS
VL: EIVLTQSPGTLSLAPGERATLSCRASQSVNSNYLAWYQQKPGQAPRLLIYGASSRATGIPDRFSGSGSGTDFTLTISRLEPEDFAVYYCQQYGFSLYSFGQGTKLEIK
B7: C058 (antibody, V domains shown)
VH: QVQLVQSGAEVKKPGASVKVSCKASGYIFTDYSMHWVRQAPGQGLEWIGWVNPNSGGTNYAQKFQGWVTMARDTSITTVYMELSRLKSDDTAVYFCARGPLFHRLVYDFWSGYHDGFDMWGQGTMVTVSS
VL: QSALTQPASVSGSPGQSITISCTGTSSDVGGYKFVSWYQQHPGKAPKLMIYEVSNRPSGVSNRFSGSKSGNTASLTISGLQAEDEADYYCNSYTSSSTWVFGGGTKLTVL
B8: C057 (antibody, V domains shown)
VH: QVQLVQSGAEVKRPGASVKLSCKASGYIFTDYSIHWVRQAPGQGLEWMGWVNPNSGGGNSAQKFMDWVTMARDTSITTVYMELSRLRSDDTAVYYCARGPLFHKLVYDSWSGYHDGFDIWGQGTMVTVSS
VL: B7 VL with G31A, K47Q, M49I, N91S, S95N, S96A, K106E
B9: C059 (antibody)
chain 1: QVQLVQSGAEVKKPGASIKVSCKASGYTFTDYSMHWVRQAPGQGLEWMGWINPNSGGTKYAQKFQGWVTMTRDMSITTVYMELTRLRSDATAVFYCARGPLFHKLVYDSWTGYHDGFDIWGQGTMVTVSS
chain 2: B7 VL with K33N, F34Y, Q40H, H41Y, S54T, N55H, N91S, Y93S, S95N, L107M
B10: C051 (antibody, V domains shown)
VH: EVQLVESGGGLIQAGGSLRLSCAASGFGVRNNYMSWVRQAPGKGLEWVSVIYSGGTTYYADSVKGRFTISRDNSKNTVFLQMNSLRAEDTAVYYCAREGDVEGFSDLWSGYSRDRYYFDYWGQGTLVTVSS
VL: QSALTQPASVSGSPGQSITFSCTGTSSDVGGYNYVSWYQQYPGKAPKLLIYDVTNRPSGVSDRFSGSKSGNTASLTISGLQAEDEADYYCSSFTSSNTRVFGTGTKVTVL
B11: C045 (antibody, V domains shown)
VH: EVQLVESGGGLVQPGGSLRLSCAASGFTFSTYSMNWVRQAPGKGLEWVSYISSSSSTIHYADSVKGRFTISRDNAKNSLYLQMNSLRDEDTAVYYCAREAHDGALTDYGDYLNWFDPWGQGTLVTVSS
VL: SYELTQPPSVSVAPGKTARITCGGTNIGSKNVHWYQQKPGQAPVLVIYYDNDRPSGIPERFSGSNSGNTATLTISRVEAGDEADYYCQVWDTTSDHFYWVFGGGTKLTVL
B12: C088 (antibody, V domains shown)
VH: QVQLVQSGAEAKKPGASVKVSCKTSGYTFTNYFMHWVRQAPGQGPEWMGIIDSSDGGASYAQKFQGRVTMTRDTSTSTVYMELRSLKFEDTAVYYCARASTSTTSWSDALSLGSWGQGTLVTVSS
VL: QSVLTQPPSVSGAPGQRVTISCTGSSSNIGGGSVVHWYQQLPGTAPKLLIYANSNRPSGVPDRFSGSKSGTSASLAIAGLQAEDEADYYCQSWDNGLSASGVVFGGGTKLTVL
B13: C518 (antibody, V domains shown)
VH: EVQLVESGGGLIQPGGSLRLSCAASGITVSSNYMSWVRQAPGKGLEWVSVMYAGGSSFYADSVKGRFTISRDNSKNTLYLQMNSLRVEDTAVYYCARDLIALGVDVWGQGTTVTVSS
VL: DIQLTQSPSFLSASVGDRVTITCRASQGISSYLAWYQQKPGKAPKLLIYAASTLQSGVPSRFSGSGSGTEFTLTISSLQPEDFATYYCQLLNSYPMCSFGQGTKLEIK
B14: C944 (antibody, V domains shown)
VH: QVQLVESGGGVVQPGRSLRLSCAASGFTFSSYGMHWVRQAPGKGLEWVAVISYDGSYKYYADSVKGRFTISRDNSKNTLYLQMNSLRAEDTAVYYCAKGSGSQLYYYYGMDVWGQGTTVTVSS
VL: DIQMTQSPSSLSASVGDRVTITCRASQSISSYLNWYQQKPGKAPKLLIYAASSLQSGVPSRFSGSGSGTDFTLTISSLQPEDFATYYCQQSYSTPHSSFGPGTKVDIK
B15: C949 (antibody, V domains shown)
VH: QVQLQESGPGLVKPLQTLSLTCTVSGGSISNGDYYWSWIRQSPGKGLEWIGNIFYSGATYFNPSLKSRVTLSVDTSKNQFSLKLSSVTAADTAVYYCARVVRVLPAASVDCWGQGTLVTVSS
VL: QSALTQPRSVSGSPGQSVPISCTGTSSDVGGYDYVSWYQQHPGKAPKLIIYDVSERPSGVPDRFSGSKSGNTASLTISGLQAEDEATYYCCSYAGTSVMFGGGTKLTVL
B16: C948 (antibody, V domains shown)
VH: EVQLVESGGGLVQPGGSLRLSCAASGFTFSRYDMHWVRQATGKGLEWVSIIGTAGDTYYPGSVKGRFTISRDNAKNSLFLQMNSLRAGDTAVYYCARANYDSSGYHNWFDPWGQGTLVTVSS
VL: DIQMTQSPSSLSASIGDRVTITCRASQNINSYLNWYQQKPGKAPKLLIYAASSLQSGVPSRFSGSGSGTDFTLTINSLQPEDFATYYCQQSYSMPSWTFGQGTKVEI
B17: C943 (antibody, V domains shown)
VH: QVQLVESGGGVVQPGRSLRLSCAASGFPFSSFGMHWVRQAPGRGLEWVALILYDGDNKYYADSVKGRFTISRDNSKNTLYLQMNSLRAEDTAVYYCAKDIGGGSSPPFFDYWGQGTLVTVSS
VL: SYELTQAPSVSLAPGKTARITCGENNIGSKSVHWYQQKPGQAPVLVIYYDSDRPSGIPERFSGSNSGNTATLTISRVEAGDEADYYCQVWDSSSDHVMFGGGTKLTVL
B18: C947 (antibody, V domains shown)
VH: QVQLQESGPGLVRPSGTLSLTCAVTGGSISSSDCWSWVRQPPGKGLEWIGEICHGRTSNYNPSLKSPVSISVDKSKNQFSLILSSVTAADKAVYYCARSSRFLPPLPDAFDLWGQGTMVTVSS
VL: QSVLTQPPSVSGAPGQRVTISCTGSSSNIGAGYDVHWYKQLPGTAPKLLIYGNTNRPSGVPGRFSGSKSGTSASLAITGLQAEDEADYFCQSYDTRLSVVFGGGTKLT
B19: C942 (antibody, V domains shown)
VH: QVQLVESGGGVVQPGRSLRLSCAASGFTFSSYVMHWVRQAPGKGLEWVAIISSDGNTKYYADSVKGRFTISRDNSKNTLYLQMNSVRTDDTAVYYCARDGTTMTPTDLLTDWGQGTLVTVSS
VL: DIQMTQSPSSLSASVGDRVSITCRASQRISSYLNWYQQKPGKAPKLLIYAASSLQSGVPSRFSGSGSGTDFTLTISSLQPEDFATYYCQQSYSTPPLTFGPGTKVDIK
B20: C940 (antibody, V domains shown)
VH: QVQLQESGSGLVKPSQTLSLTCAVSGGSASSGGYSWSWIRQPPGKGLEWIGYIYHSGSTYYNPSLKSRVTISLDRTKKQFSLKLSSVTAADTAVYYCARFCLSGSHYLFAFDIWGPGTMVTVSS
VL: QSALTQPASVSGSPGQSITISCTATSSDVGGYNFVSWYQQYPGKVPKLLIYDVGNRPSGVSNRFSGSKSGNTASLTISGLQAEDEADYYCSSYTNSSTFFGGGTKLTVL
B21: C945 (antibody, V domains shown)
VH: QVQLVQSGAEVKKPGASVRISCKASGYTFTNYYMHWVRQAPGQGLEWMGIINPSGGSTTYAPKFQARVTMTRDTSTSTVYMELSSLRSDDTAVYYCARDYVLVPARSGMDVWGQGTTVTVS
VL: EIVLTQSPATLSLSPGERATLSCRASQSVSSYLAWYQQKPGQAPRLLIYDASNRATGIPARFSGSGSGTDFTLTISSLEPEDFAIYYCQQRSNWPYTFGQGTKLEIK
B22: C946 (antibody, V domains shown)
VH: QVQLVQSGAEVKKPGASVKVSCKASGYTFTNYYIHWVRQAPGQGLEWMGIINPDGDSTSYVQKFQGRVTMTRDTSTSTVYMELSSLRSEDTAVYYCARDLVFVPATSAMDVWGKGTTVTVSS
VL: B21 VL with I85V, P95L, Y96F, Q100P, L104V, E105D
B23: C941 (antibody, V domains shown)
VH: QVQLVQSGAEVKKPGSSVKVSCKASGGTSRSYPISWVRQAPGQGLEWMGRIIPIVGTANYAQRFQGRVTITADESTGTAYMELSSLRSEDTAVYYCARNRGYSDYGSVYYFDYWGQGTLVTVSS
VL: QSVLTQPPSVSGAPGQRVTISCTGSSSNIGAGYDVHWYQQLPGAAPKLLIYRNINRPSGVPDRFSGSKSGTSASLAITGLQADDEADYYCQSYDSSLSGSVFGGGTKLTV
B24: C935 (antibody, V domains shown)
VH: QVQLVESGGGVVQPGRSLRLSCAATGFTFSSYGMHWVRQAPGKGLEWVALIWYDGSNQYYVDSVKGRFTISRDNSKKTLYLQMNSLRVEDTAVYYCARDFSNSDMVTLSDAFDIWGQGTMVTVSS
VL: DIQLTQSPSFLSASVGDRVTIACRASQGISSYSSYLAWYQQKPGKAPKLLIYAASTLQSGVPSRFSGSGSGTEFTLTISSLQPEDFATYYCQQLNSYPLFTFGPGTKVDIK

Target: SARS-COV-2 RBD (SARS-COV-2, UniProt P0DTC2 319-539)
Assay: ELISA, RBD coated

| Binder | EC50 |
| --- | --- |
| B1 | 4.69 ng/mL |
| B2 | 193 ng/mL |
| B3 | 1.53 ng/mL |
| B4 | 1.58 ng/mL |
| B5 | 1.23 ng/mL |
| B6 | 381 ng/mL |
| B7 | 2.28 ng/mL |
| B8 | 2.31 ng/mL |
| B9 | 1.88 ng/mL |
| B10 | 1.65 ng/mL |
| B11 | 7 ng/mL |
| B12 | 2.44 ng/mL |
| B13 | 1.13 ng/mL |

Target: T1, SARS-COV-2 RBD (SARS-COV-2, UniProt P0DTC2 319-539)
T1 construct: also called WT RBD
Assay: ELISA, RBD coated on plate

| Binder | EC50 |
| --- | --- |
| B14 | 1.71 ng/mL |
| B15 | 2.33 ng/mL |
| B16 | 3.26 ng/mL |
| B17 | 2.59 ng/mL |
| B18 | 2.08 ng/mL |
| B19 | 2.13 ng/mL |
| B20 | 1.8 ng/mL |
| B21 | 3.13 ng/mL |
| B22 | 3.82 ng/mL |
| B23 | 1.92 ng/mL |
| B24 | 2.86 ng/mL |
